Test: soluble on expression in E. coli; label from the status in PepcDB or PDB records
For “MKKIISLALALALSASAAELKMATTTSTDNTGLLDALKPLYEKESGNTLKWVAVGTGAALKMGEDCNADVLFVHSPKAEKEFMKKGFGVDRTPVMYNDFIIIADKSLASKFKGKNLKESLELIKNEKLTFISRGDKSGTDNKEKSLWKNLGGVPEKQSWYQQSGQGMLASIKIAEEKKGVILTDRGTYIKYEANEKGKPNLVIVNEGDDSLKNFYSVIATNPKHCKNVNYTEASKFIKWVTSDKTLNFIADFKLLNKPLFVIDAKTRKD”, the “soluble on expression in E. coli” value was “not soluble”. For “MEKKKVTIPQVCHGHSRPVVDLFYSPITPDGFFLISASKDSHPMLRNGETGDWIGTFEGHKGAVWSSCLDNNALRAASASADFSAKLWDALTGDVLHSFEHKHIVRACAFSEDTKSLLTGGFEKILRVFDMNRLDAPPTEVDKSPGSIRTLTWLHSDQTILSSCTDIGGVRLWDVRSGKIVQTLETKSPVTSAEVSQDGRYITTADGSTVKFWDANHFGLVKSYDMPCNIESASLEPKSGEKFVAGGEDMWVRVFDFYTGEEIGCNKGHHGPVHCVRFTPTGLSYASGSEDGTIRIWQTTPANPEENETSSRRVKHSVDEVSKKIEGFHINKEGKTAEKPSDT”, the “soluble on expression in E. coli” value was “soluble”. With “MGSDKIHHHHHHMIERKRYVTMKGHRGGLAVYVNERCSVDEFLDDLELTLADKSVENGRAVPITFFFGRRYVDEGVVTAVESIVARHDSFSFNGYDSECLTKDEAKALYGERTFHYFGGTARSGHVVDVEGSIVVIGDINPGAVVHATGSIYCLGALRGTVHAGKGGNHQAVIAASVLQPKWISISDFVYEDPDDAPIQALDMGCAFVGETGVEFSRLQTVPLARMDQFAIDSERG” the “soluble on expression in E. coli” value was “not soluble”. With “MHHHHHHLTKVFGSRNDRTLRRMRKVVNIINAMEPEMEKLSDEELKGKTAEFRARLEKGEVLENLIPEAFAVVREASKRVFGMRHFDVQLLGGMVLNERCIAEMRTGEGKTLTATLPAYLNALTGKGVHVVTVNDYLAQRDAENNRPLFEFLGLTVGINLPGMPAPAKREAYAADITYGTNNEYGFDYLRDNMAFSPEERVQRKLHYALVDEVDSILIDEARTPLIISGANQTLASITFQNYFRLYEKLAGMTGTADTEAFEFSSIYKLDTVVVPTNRPMIRKDLPDLVYMTEAEKIQAIIEDIKERTAKGQPVLVGTISIEKSELVSNELTKAGIKHNVLNAKFHANEAAIVAQAGYPAAVTIATNMAGRGTDIVLGGSWQAEVAALENPTAEQIEKIKADWQVRHDAVLEAGGLHIIGTERHESRRIDNQLRGRSGRQGDAGSSRFYLSMEDALMRIFASDRVSGMMRK” the “soluble on expression in E. coli” value was “soluble”. In the case of “MSSPSGSSRTFPQYQSGSGWNAMLPKRTPRTAAPARRHFKSLVIGAGYTGLAAARRLAELQPQDQVLVVDATVAGEGSAGRNSGFLINLPHNTRMSGHHSPLEVARKQIAMLQSGLDWLAQLSGQGGFDCGWDLAGKYHAAATADGEQSLRGALQQYGQWGVAYSELDRDALQAQLGTRYYRFGYHSMNNVFVQPAALIRGLADSLPENVWLTEDNPVLSIDGSGPYKVRTRGGEFTADNVILANNAFARRLGFLRSRLVTIFTYAGVTPVLSPAQQALLGERDQWGVIPANRLGTTLRRISGGRFMVRSAYSYEAEQPLERMEQLLRDSFVRRYPDLAAHDFEYVWSGSTGLTGNGASFVGAIQPGLYASVGCNGAGVIKGTIYGKLLGEQVAGHRSAMLDDLASFEKPNWLPPEPLRRIGALSTIAYQARKAGLEKLEHHHHHH”, the “soluble on expression in E. coli” value is reported as “soluble”. For “MGPNPMKMYPIEGNKSVQFIKPILEKLENVEVGEYSYYDSKNGETFDKQILYHYPILNDKLKIGKFCSIGPGVTIIMNGANHRMDGSTYPFNLFGNGWEKHMPKLDQLPIKGDTIIGNDVWIGKDVVIMPGVKIGDGAIVAANSVVVKDIAPYMLAGGNPANEIKQRFDQDTINQLLDIKWWNWPIDIINENIDKILDNSIIREVIWKK”, the “soluble on expression in E. coli” value was “soluble”. For “DPFEDLDALGSILEEKYGLLEAHVVFSPTPDYAGITHDLSRYGAEYMHETVKDGDIVGVSWGTTMYQIAQNMQPKQVKGVEVVQLKGGISHSRVNTYSAETIQLFAEAFQTMPRYLPLPVVFDNADVKRMVEKDRHIERIIEMGKQANIALFTVGTVRDEALLFRLGYFNEEEKALLKKQAVGDICSRFFDAKGNICSSAINDRTIGVELQDLRLKERSILVAGGSRKVSSIHGALTGKYANVLIIDQHTARALVNDL”, the “soluble on expression in E. coli” value was “not soluble”. With “MFSKVNNQKMLEDCFYIRKKVFVEEQGVPEESEIDEYESESIHLIGYDNGQPVATARIRPINETTVKIERVAVMKSHRGQGMGRMLMQAVESLAKDEGFYVATMNAQCHAIPFYESLNFKMRGNIFLEEGIEHIEMTKKLTSLN” the “soluble on expression in E. coli” value was “not soluble”. With “MSLQVVIKFGGTSVSTRATWNNIAAITQKHLNTGVQPVIVCSALTQISNKLEKAIEAALLDEHHSLFNDIQSSHLNLAEQLEVNHQLIANDLHQLQQWLTGISLLKQAPAKTHAQILSLGELMMTRMGHAFLERHEIKVKWYDARELLTSTPTLGGETMNYLSARCESEYDPGLVEKFLSSGAQAIITQGFFAANPHGETVLLGRGGSDTSAALLAGKLQAASCEIWTDVPGIYTANPHQLPHARLLKQLNYDEAQEIASMGAKVLHPNCIPPVRKANIPMVVKYTHLPEHSGTLITKDIDESAPLIKSIQVKHSILLISIDTLNMWQQVGFLADVFAAFKKHGFSVDLLSSSEFNVTLSLDVNAKIHDRPAINALLDDLNQFGRAKLIEPCSAVSLVGHHIRTVLPHLGPALEVFEAKQVYLMSLASNDLNLTFVVDESHADKLCQRLHHLLIESNPQIFYYSKSWHEEFGKPNVRPTPWWEIERDRLLTTSAIHSPCYVYHSPTQAIRARQLSALESIDSLFYAVKANPFPSILKTLEKEGIGFECVSIQELELVLKLFPNIKKERILFTPNFAPKSEYEFALQTGCYVTIDSLYPLENWPELFKNREVIVRIDPGTGAGHHKHVSTGGNESKFGITQNDISKILSLTKSNHIKVIGLHAHSGSGILSTDLWQQTAVMLASLTDQFPEVRSINLGGGLGIVEKPGQHPIDFAALDAQLMAVKSQYPGLAIWLEPGRFFVAESGVILAKVTQCKEKGKVKFIGIETGMNSLIRPSLYGAYHEIVNLTRLHEEKAGFAHIVGPICESGDTLGYDRLLPVTKEGDVILIANTGAYGHCMSSHYNLRPPAQEIVLEEGHHHHHH” the “soluble on expression in E. coli” value was “soluble”. For “MVETPPAWVLLKRARERIYTLPPDFPGFRARLGLCLDGVWYVGAVEAEGFAPKTLGLFGEAGAIAEKELGSLLGHRRPAPFEEGEGRYPMRLFAEGPLGTGIALEDPFRSRIWVKEGRLALIERHLPEGSFRIHLETWREVGERLLPHRFLLVHRDPRGHLLKVERFRDEYAQVGPYWLPVEREVVVEGEGLGVLVLRLEEVEVKG”, the “soluble on expression in E. coli” value was “soluble”. For “MANGTVKIAEQSGVLPIAGDKIVLITARGSGRWIIPKGYIEKGMSPAESAAKEAWEEAGIVGSVRHEEIGTYSYRRPSGIFSVRIYPLEVESLLEQWDEMHVRQRRLVTPSEAIEMICLKELRSLITDYLIKRFDFLEHHHHHH”, the “soluble on expression in E. coli” value was “not soluble”. With “MGSDKIHHHHHHMNRKVAIVTGTNSNLGLNIVFRLIETEDTNVRLTIVVTSRTLPRVQEVINQIKDFYNKSGRVEDLEIDFDYLLVDFTNMVSVLNAYYDINKKYRAINYLFVNAAQGIFDGIDWIGAVKEVFTNPLEAVTNPTYKIQLVGVKSKDDMGLIFQANVFGPYYFISKILPQLTRGKAYIVWISSIMSDPKYLSLNDIELLKTNASYEGSKRLVDLLHLATYKDLKKLGINQYVVQPGIFTSHSFSEYLNFFTYFGMLCLFYLARLLGSPWHNIDGYKAANAPVYVTRLANPNFEKQDVKYGSATSRDGMPYIKTQEIDPTGMSDVFAYIQKKKLEWDEKLKDQIVETRTPI” the “soluble on expression in E. coli” value was “not soluble”. In the case of “MNNNELYVSLDLGTSNTKVIVGEMTGDSLNIIGVGNVPSEGLKKGSIVDIDETVHSIRKAFDQAERMVGFPLRKAIVGVNGNYINIQDTNGVVAVSSENKEIQVEDVRRVMAAAQVVSVPHEQLIVDVIPKQFIVDGRDEITDPKKMLGVRLEVEGTLITGSKTILHNLLRCVERAGIEITDICLQPLAAGSAALSKDEKNLGVALIDIGGGSTTIAVFQNGHLTSTRVIPLGGENITKDISIGLRTSTEEAERVKKQLGHAYYDEASEDEIFEVTVIGTNQKQTFTQQEAANIIEARVEEILEIVSEELRSMGITDLPGGFVLTGGQAAMPGVMSLAQDVLQNNVRVQGPNYIGVRDPQYMTGVGLIQFACRNARIQGRKIGFKMPEEAIQEIAVSSSEEQEQHHHQNEVQQRPKGKQKTQAEHNKQSKMKKLLSMFWE”, the “soluble on expression in E. coli” value is reported as “not soluble”. With “MSLDWNRLKPTINQKVSAELNRPFAIRGDLGVVWERQKQETGWRSWVPWPHVHAEDIILGNPPDIPEVTMVHLPRVEATLAPLALLTKTVWLPWIKLEKPDARLIRLSEKNNNWTFNLANDDNKDANAKPSAWSFRLDNILFDQGRIAIDDKVSKADLEIFVDPLGKPLPFSEVTGSKGKADKEKVGDYVFGLKAQGRYNGEPLTGTGKIGGMLALRGEGTPFPVQADFRSGNTRVAFDGVVNDPMKMGGVDLRLKFSGDSLGDLYELTGVLLPDTPPFETDGRLVAKIDTEKSSVFDYRGFNGRIGDSDIHGSLVYTTGKPRPKLEGDVESRQLRLADLGPLIGVDSGKGAEKSKRSEQKKGEKSVQPAGKVLPYDRFETDKWDVMDADVRFKGRRIEHGSSLPISDLSTHIILKNADLRLQPLKFGIAGGSIAANIHLEGDKKPMQGRADIQARRLKLKELMPDVELMQKTLGEMNGDAELRGSGNSVAALLGNSNGNLKLLMNDGLVSRNLMEIVGLNVGNYIVGAIFGDDEVRVNCAAANLNIANGVARPQIFAFDTENALINVTGTASFASEQLDLTIDPESKGIRIITLRSPLYVRGTFKNPQAGVKAGPLIARGAVAAALATLVTPAAALLALISPSEGEANQCRTILSQMKKEGHHHHHH” the “soluble on expression in E. coli” value was “soluble”. In the case of “MVHYKLTYFLSRGLGDVSRQLFHLADVDFEDERLEKPHFLEKKETYPFKQVPVLSVDGFQIPQSMAIARYLAKKFGFAGKTAEESAMVDAFVDQFKDFYSEIRDYYYTMLGLGLTDLDGDEQKDKVLIPARDKFLPLLTRYLEKSKSGFLVDGGLTFADLIILDNMTSLLNWWPEYANDYPVILAWRDKVMNYPRLKEYIEKRPVTMY”, the “soluble on expression in E. coli” value is reported as “not soluble”. In the case of “MGNTSSERSGGEKTHRRESRSGKDGTRPKILMDSAEDGDLFQSDDAKEFLAWRQDQESDSKTPLEERPTVFRWKGPGKEIYLSGSFNNWATKIPLNKSHNNFVAIIDLPEGEHQYKFYVDGHWTLDPKEPVVTNKSGVVNNVIKVRKTDFEVFDALKTDSEKCADMSDLSSSPPGPYHQDPYSTKSEDKLRSPPILPPHLLQVLLNKDTGISCDPTLLPEPNHVMLNHLYALSIKDGVMVLSATHRYKKKYVTTLLYKPI”, the “soluble on expression in E. coli” value is reported as “not soluble”. In the case of “TPDRHQFPGLANKTYFNFGGQGILPTVALEAITAMYGYLQENGPFSIAANQHIQQLIAQLRQALAETFNVDPNTITITDNVTTGCDIVLWGLDWHQGDEILLTDCEHPGIIAIVQAIAARFGITYRFFPVAATLNQGDAAAVLANHLGPKTRLVILSHLLWNTGQVLPLAEIMAVCRRHQGNYPVRVLVDGAQSAGSLPLDFSRLEVDYYAFTGHAWFAGPAGVGGLYIHGDCLGEINPTYVGWRSITYGAKGEPTGWAEGGKRFEVATSAYPQYAGLLAALQLHQRQGTAEERYQAICQRSEFLWRGLNQLPHVHCLATSAPQAGLVSFTVDSPLGHRAIVQKLEEQRIYLRTIADPDCIRACCHYITDEEEINHLLARLADFGP”, the “soluble on expression in E. coli” value is reported as “soluble”.
